No end group written: not given here.
T1: E. coli rhomboid protease GlpG (E. coli, UniProt P09391 1-276, limits assumed)
T1 sequence (looked up): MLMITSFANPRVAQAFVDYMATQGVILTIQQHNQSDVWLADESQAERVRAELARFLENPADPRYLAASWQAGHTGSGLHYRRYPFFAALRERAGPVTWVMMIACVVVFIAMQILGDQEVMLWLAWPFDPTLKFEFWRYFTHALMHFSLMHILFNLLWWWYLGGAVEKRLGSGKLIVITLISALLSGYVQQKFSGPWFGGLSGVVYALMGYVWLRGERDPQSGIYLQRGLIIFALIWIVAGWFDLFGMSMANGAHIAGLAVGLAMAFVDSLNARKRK


How the values were obtained:
[1] = biological target: T1, E. coli rhomboid protease GlpG; test: cell-based or functional assay
[2] = biological target: T1, E. coli rhomboid protease GlpG; test: in vitro inhibition of rhomboid protease GlpG, as described (Ticha et al., 2017); printed as a Ki range

Binder	IC50 (µM), measured in vitro as described (Ticha et al., 2017) [1] [µM]	Ki [2] [nM]
Ac-RVRHA-{keto‑C(:O)NH-benzyl} [Compound 4]	7.64	–
Ac-RVRHA-{keto‑C(:O)NH-ethoxycarbonylmethyl} [Compound 6]	4.24	–
Ac-RVRHA (also: C-terminal Ala as alpha-ketoamide, -CO-CO-NH-CH2-(2,5-dimethylphenyl), Structure is printed only as a drawing; Tail inferred from C38H60N14O7, MW 824.99; also called Cpd No. 10) [Compound 10]	0.18	10 to 100
Ac-Arg-His-Ala (not fully specified (C-terminus)) [Compound 13]	9.05	–
Ac-RVRHA-{keto‑C(:O)NH-neopentyl} [Compound 7]	2.15	–
Ac-RVRHA-{keto‑C(:O)NH2} [Compound 1]	203	–
Ac-RVRHA (not fully specified (C-terminus)) [Compound 3]	5.01	–
Ac-RVRHA-{keto‑C(:O)NH-pentyl} [Compound 8]	1.08	–
Ac-RVRHA-{keto‑C(:O)NH-1‑phenylethyl} [Compound 5]	13.8	–
Ac-RVRHA (also: C-terminal Ala as alpha-ketoamide, -CO-CO-NH-(CH2)4-Ph, Structure is printed only as a drawing; Tail inferred from C39H62N14O7, MW 839.02; also called Cpd No. 11) [Compound 11]	0.15	10 to 100
Ac-RVWHA-{keto‑C(:O)NH-4‑phenylbutyl} [Compound 16]	0.77	–
Ac-RVRHA-{keto‑C(:O)NH-isopropyl} [Compound 2]	12.4	–
Ac-RVRHA (also: C-terminal Ala as alpha-ketoamide, -CO-CO-NH-(CH2)2-Ph, Structure is printed only as a drawing; Tail inferred from monoisotopic mass 810.461290, MW 810.96, and the NMR; It has the same mass as compound 5; also called Cpd No. 9) [Compound 9]	0.34	10 to 100
Ac-His-Ala (not fully specified (C-terminus)) [Compound 14]	48	–

Source: patent publication US20200095278A1 (USTAV ORGANICKE CHEMIE A BIOCHEMIE AV CR V V I, published 2020)
